The test system of the data set is MS2 coat protein. Put plainly: apparent KD of MS2 coat protein; designed switch direction (-1 OFF switch, 1 ON switch): -1; higher = weaker reporter binding. The gist of the method:
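The buffer was Tris-HCl pH 7.5 with KCl, MgCl2, BSA, DTT, tRNA and Tween-20. In it, SNAP-549-labelled MS2 coat protein was titrated in doubling steps from 0.7 or 1.5 nM to 3 µM over chip-bound RNA switches transcribed by stalled E. coli RNA polymerase on Illumina chips. Apparent KD is the per-design median over clusters of curve fits to normalised fluorescence.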

Setting [1] is: Eterna round: R95, input ligand: microRNA oligo, concentration not stated.
Where [2] appears, read: Eterna round: R95, input ligand: FMN 200 uM.
The mark [3] stands for this setting: Eterna round: R95, input ligand: none.
The mark [4] stands for this setting: input ligand: microRNA oligo, concentration not stated.

The values below come from the supplement of paper PMC9170038.

For the sequence “AUACCACGAGGAUAUCGUCUAUAAUACAUGAGGAUCACCCAUGUUAUAUCUGUAAUGUUUCGAGAAGGCGUGUUUU [JR_E5_Sub083] (puzzle: Exclusion 5)”, the “apparent KD of MS2 coat protein” value under setting [1] stood at 0.0166 µM.
On to “AUAGAGUCAGGAUAUACAAGAUGAAAGAUAGAUAGAAGAAAGUAGAAGGGACAUGAGGAUCACCCAUGUAAGAA [JR_Exclu4_Sub051] (puzzle: Exclusion 4)”, for which the “apparent KD of MS2 coat protein” value reads like this: under setting [2], 0.0349 µM; under setting [1], 0.0317 µM; under setting [3], 0.0362 µM.
With “AUAGAUCGUUAGGAUAUCCAGAUGACCCUCGUUGGAGAAGGAACGACAUGAGGAUCACCCAUGUUAUAGUACUU [Eternabot (L2) Solution 66] (Eterna round: R97, puzzle: Exclusion 6)”, the “apparent KD of MS2 coat protein” value runs as follows: (input ligand: FMN 200 uM) 0.0169 µM; (input ligand: none) 0.0185 µM.
As for “AUAGGAGGAGGAUAUGAAACCGAUAACAUGAGGAUCACCCAUGUCGAAAGAACUUUCCGGUCAGAAGGCCUGAUGU [Eternabot (L2) Solution 60] (Eterna round: R97, puzzle: Exclusion 5)”, the “apparent KD of MS2 coat protein” value is, setting by setting: (input ligand: FMN 200 uM) 0.0163 µM; (input ligand: none) 0.0251 µM.
On to “AUAGGCUUUUAUAUCCUUAACAUGAGGAUCACCCAUGUUCGUCUUAUGAUGGUCUGAUCCCUGAGGAUCGGACCGUU [JL-sv1-2.05 Brourd Mod] (puzzle: Sensor v3, turn-off variant 1)”, for which the “apparent KD of MS2 coat protein” value is, setting by setting: under setting [2], 0.0323 µM; under setting [1], 0.134 µM; under setting [3], 0.0354 µM.
On to “AUAGUAUUGCAAGGAUAUCGAUUUAGUUUGUUUCGAGAAGGUGCUUUAGUUUAUACCUCUUGUUUACAUGAGGAUCACCCAUGU [JR_ExcNG1_Sub049] (Eterna round: R96, puzzle: Exclusion NG 1)”, for which the “apparent KD of MS2 coat protein” value by setting is: (input ligand: FMN 200 uM) 0.0185 µM; under setting [4], 0.0192 µM; (input ligand: none) 0.0275 µM.
As for “AUAGUGUUAGGAUAUGCUUAUGCUGGGUAGUCCAGUAUGGAGUAGAAGGGACAUGAGGAUCACCCAUGUGCUCA [EX4 #40] (Eterna round: R97, puzzle: Exclusion 4)”, the “apparent KD of MS2 coat protein” value came out at 0.0186 µM (input ligand: FMN 200 uM) and 0.0205 µM (input ligand: none).
With “AUAUAGAUGGUCAGGAUAUGCUAGUGGUAACAGUAGCAGAAGGGACAUGAGGAUCACCCAUGUAGAUCCUGCUC [Brourd's EX4 #13] (Eterna round: R97, puzzle: Brourd's mod of Exclusion 4)”, the “apparent KD of MS2 coat protein” value by setting is: (input ligand: FMN 200 uM) 0.0335 µM; (input ligand: none) 0.0211 µM.
As for “AUAUAUAGUGUGAGGAUAUGCUGGUCCUUGGAUCAGCAGAAGGCACAUGAGGAUCACCCAUGUAGUUUAUUUUU [Mat - Exclusion 4 - JL Mod - D5] (puzzle: Brourd's mod of Exclusion 4)”, the “apparent KD of MS2 coat protein” value under setting [1] is 0.0262 µM.
As to “AUAUAUAUAGGAUAUACAUGAGGAUCACCCAUGUAAAGUAGCUUGCGUACAGGCAGAUGUAGAAGGAUAUAUAU [Mod of JL 15 - Jieux - Exclusion 3] (Eterna round: R97, puzzle: Exclusion 3)”, the “apparent KD of MS2 coat protein” value (input ligand: FMN 200 uM) amounted to 0.0292 µM and the “apparent KD of MS2 coat protein” value (input ligand: none) was found to be 0.0331 µM.
As for “AUAUCCAGAGGAUAUCCGCACGGACACAUGAGGAUCACCCAUGUUUUCAUGAACGUUGCCGGAGAAGGCUGAGGAA [Eternabot (Original) Solution 10] (Eterna round: R97, puzzle: Exclusion 5)”, the “apparent KD of MS2 coat protein” value reads like this: (input ligand: FMN 200 uM) 0.0797 µM; (input ligand: none) 0.0697 µM.
Take “AUAUGUAACUAGGAUAUCAGCAUACUUCAAUGUUGAGAAGGAGUUACAUGAGGAUCACCCAUGUAUCCAACAUG [Exclusion 6 - 3] (Eterna round: R96, puzzle: Exclusion 6)”: the “apparent KD of MS2 coat protein” value by setting is: (input ligand: FMN 200 uM) 0.0733 µM; under setting [4], 0.0567 µM; (input ligand: none) 0.0671 µM.
On to “AUAUGUAACUAGGAUAUCAGCAUACUUCAAUGUUGAGAAGGAGUUACAUGAGGAUCACCCAUGUAUCCAACAUG [Exclusion 6 - 3] (puzzle: Exclusion 6)”, for which the “apparent KD of MS2 coat protein” value under setting [1] came out at 0.0441 µM.
Regarding “AUAUUGUGAGGAUAUGAACUUAGUAUCGAAAGAUUCUAAGUUCAGAAGGCACAUGAGGAUCACCCAUGUUUCUC [Long static hairpin v20] (Eterna round: R97, puzzle: Exclusion 4)”, the “apparent KD of MS2 coat protein” value worked out at 0.808 µM (input ligand: FMN 200 uM) and 0.0819 µM (input ligand: none).
Turning to “AUAUUUAAGCUUUUGUGAAACAUGAGGAUCACCCAUGUCCUCAUACCUGGACAUUUAAGUCUAGGAGCUCGUCUUAU [Last end dangle 1] (Eterna round: R97, puzzle: Sensor, turn-off variant 1)”, the “apparent KD of MS2 coat protein” value came out at 0.518 µM (input ligand: FMN 200 uM) and 0.558 µM (input ligand: none).
In the case of “AUAUUUAGCUUUUUGUGAAACAUGAGGAUCACCCAUGUCCUCAUACCUGGACAUUUAAGUCUAGGAGCUCGUCUUAU [Last end dangle 2] (Eterna round: R97, puzzle: Sensor, turn-off variant 1)”, the “apparent KD of MS2 coat protein” value was found to be 0.479 µM (input ligand: FMN 200 uM) and 0.612 µM (input ligand: none).
Turning to “AUCAAAUUAAAUACAGAUCACAUGAGGAUCACCCAUGUCGUACGAGUGCAGAUCUUUGAAGCUGGCUCGUCUAAGUG [Eternabot (L2) Solution 21] (Eterna round: R97, puzzle: Sensor, turn-off variant 1)”, the “apparent KD of MS2 coat protein” value runs as follows: (input ligand: FMN 200 uM) 0.154 µM; (input ligand: none) 0.165 µM.
Take “AUCAGCUCGUCAGGAUAUACAUCACUGCUUCGGCAGUGUAUUAAGAUCACAUGAGGAUCACCCAUGUAGAAGGGACGAGCUGAU [ENG2/2-B3] (Eterna round: R96, puzzle: Exclusion NG 2)”: the “apparent KD of MS2 coat protein” value by setting is: (input ligand: FMN 200 uM) 0.342 µM; under setting [4], 0.0182 µM; (input ligand: none) 0.0253 µM.
The corresponding values for “AUCAGCUCGUCAGGAUAUACAUGAGGAUCACCCAUGUGGUCAAUAGCAGCUUCGGCUGCAUACAUGUAGAAGGGACGAGCUGAU [ENG2/7-B2] (Eterna round: R96, puzzle: Exclusion NG 2)” are 0.0284 µM, 0.894 µM and 0.101 µM.
“AUCAGCUCGUCAGGAUAUACAUGAUAGAUCGAUUAAUUAAUUAAUUUAACAUGAGGAUCACCCAUGUAGAAGGGACGAGCUGAU [ENG2/1-B3] (Eterna round: R96, puzzle: Exclusion NG 2)”: the “apparent KD of MS2 coat protein” value under setting [4] is 0.0393 µM.
Take “AUCAGCUCGUGAGGAUAUACAUGCGUGCUUCGGCACGUAUGAUAGAUCACAUGAGGAUCACCCAUGUAGAAGGUACGAGCUGAU [ENG2/4-C3] (Eterna round: R96, puzzle: Exclusion NG 2)”: the “apparent KD of MS2 coat protein” value by setting is: (input ligand: FMN 200 uM) 0.0126 µM; under setting [4], 0.0107 µM; (input ligand: none) 0.0126 µM.
For “AUCAUGUAAGGAUAUCUGACAAGUGACGAAAGUCACAGUUCAGAGAAGGUACAUGAGGAUCACCCAUGUAGAAC [Ex4-3: 42] (puzzle: Exclusion 4)”, the “apparent KD of MS2 coat protein” value is, setting by setting: under setting [2], 0.0824 µM; under setting [1], 0.0513 µM; under setting [3], 0.0716 µM.
Regarding “AUCAUGUAAGGAUAUGAAAGUAAACGCGUGAAGACCACGCAUCAGAAGGUACAUGAGGAUCACCCAUGUGUCCG [Soesatle] (Eterna round: R97, puzzle: Exclusion 4)”, the “apparent KD of MS2 coat protein” value by setting is: (input ligand: FMN 200 uM) 0.0606 µM; (input ligand: none) 0.0198 µM.
As for “AUCAUGUUAGGAUAUACAAGAAAAGAAAAGAAAGAAAAGAAGUAGAAGGAACAUGAGGAUCACCCAUGUAAGAA [EteRNA is fun!] (Eterna round: R96, puzzle: Exclusion 4)”, the “apparent KD of MS2 coat protein” value under setting [4] was found to be 0.023 µM.
“AUCCGGCGUGUAGGAUAUGGUUCCGUUUCGGUUCCAGAAGGACAUGAGGAUCACCCAUGUGCCUGUCGUCGGUCGUCACCGGGC [salish99_ExNG1_r04_218] (Eterna round: R96, puzzle: Exclusion NG 1)”: the “apparent KD of MS2 coat protein” value (input ligand: FMN 200 uM) turned out to be 0.0437 µM, the “apparent KD of MS2 coat protein” value under setting [4] is 0.0134 µM and the “apparent KD of MS2 coat protein” value (input ligand: none) is 0.0165 µM.
With “AUCCUACAUGAGGAUCACCCAUGUCAGGAUAUCCAAGAAAUAUGGCCGUAUCGGCCAUGGAGAAGGGAUAUGGG [jl-ex1-4.67 ViennaUCT mod] (Eterna round: R97, puzzle: Exclusion 1)”, the “apparent KD of MS2 coat protein” value (input ligand: FMN 200 uM) amounted to 0.0265 µM and the “apparent KD of MS2 coat protein” value (input ligand: none) worked out at 0.115 µM.
For “AUCCUACAUGAGGAUCACCCAUGUCAGGAUAUCCAAGAAAUCUGGCCGUAUCGGCCAGGGAGAAGGGAUAUGGG [jl-ex1-4.64 ViennaUCT mod] (Eterna round: R97, puzzle: Exclusion 1)” the same measures were 0.0577 µM and 0.0742 µM.
“AUCGUGCAGCAAAGCUGUACGAGUACAUGAGGAUCACCCAUGUAGGAUAUGGUACGCAAAGCGUGCUAGAAGGAUAUGUGUAAG [Mat - Exclusion NG 3 - Mod of JL - D85] (Eterna round: R96, puzzle: Exclusion NG 3)”: the “apparent KD of MS2 coat protein” value runs as follows: (input ligand: FMN 200 uM) 0.0655 µM; under setting [4], 0.0399 µM; (input ligand: none) 0.0616 µM.
For “AUCGUGCAGCUUUGCUGUACGAGUACAUGAGGAUCACCCAUGUAGGAUAUGGUACGCUUUGCGUGCUAGAAGGAUAUGAGAUUU [JL ENG3 1.50] (Eterna round: R96, puzzle: Exclusion NG 3)”, the “apparent KD of MS2 coat protein” value (input ligand: FMN 200 uM) is 0.0417 µM, the “apparent KD of MS2 coat protein” value under setting [4] was 0.0243 µM and the “apparent KD of MS2 coat protein” value (input ligand: none) came to 0.0386 µM.
As to “AUCUGCACGCUGCGGUCCUACAUGAGGAUCACCCAUGUGGUCUGGUGGCGUGGGUCGCCGGACUUGGCUCGUCUUGG [salish99_S_TOV1_R5_050] (Eterna round: R97, puzzle: Sensor, turn-off variant 1)”, the “apparent KD of MS2 coat protein” value runs as follows: (input ligand: FMN 200 uM) 0.0154 µM; (input ligand: none) 0.0152 µM.
As for “AUCUUGUCAGGAUAUCGUACAAUAUGGAAAACAUAGAGGUACGAGAAGGGACAUGAGGAUCACCCAUGUAAAAC (Eterna round: R96, puzzle: Exclusion 4)”, the “apparent KD of MS2 coat protein” value under setting [4] stood at 0.029 µM.
